Results: US20140256640A1 (PAION DEUTSCHLAND, published 2014)

Molecular target: human thrombin (human, UniProt P00734 328-622)
Test: equilibrium titration of thrombin (20 nM) with thrombomodulin in solution, read by the change in fluorescence of the thrombin inhibitor DAPA, fitted by nonlinear regression
Experimental: A solution containing thrombin (20 nM), thrombomodulin (1.54 μM), and DAPA (20 nM, dansylarginine N-3-(ethyl-1,5-pentanediyl)amide, a fluorescent, reversible thrombin inhibitor) in 0.02 M Tris-HCl, 0.15 M NaCl, 5.0 mM CaCl₂, 0.01% Tween 80, pH 7.4, was added in small successive aliquots to an otherwise identical solution that lacked thrombomodulin. The additions were performed in a cuvette fitted with a magnetic stirrer in the sample compartment of a Perkin-Elmer model LS50B spectrofluorimeter. Intensity values were continuously recorded with excitation and emission wavelengths of 280 and 545 nm, respectively. A 430-nm cut-off filter was used in the emission beam. The intensity of fluorescence, I, was assumed to be the sum of intensities from thrombin-DAPA (T·D) and thrombin-thrombomodulin-DAPA (T·TM·D). That is, I=i₁·[T·D]+i₂·[T·TM·D], where i₁ and i₂ are the coefficients of fluorescence for T·D and T·TM·D (since excitation was at 280 nm, the emission from free DAPA was negligible).
Therefore, with KTM defined as the dissociation constant for the thrombin-thrombomodulin interaction, [T][TM]=KTM[T·TM]; [T·D][TM]=KTM[T·TM·D]; and ([T]+[T·D])·[TM]=KTM([T·TM]+[T·TM·D]). The last expression is identical to f·[TM]=KTM·b. Since f=1−b and [TM]=[TM]₀−b[T]₀, where [TM]₀ is the total thrombomodulin concentration, the following equation is obtained: (1−b)([TM]₀−b·[T]₀)=KTM·b. […]

B1: Solulin (recombinant human soluble thrombomodulin) (receptor)
chain: EPQPGGSQCVEHDCFALYPGPATFLNASQICDGLRGHLMTVRSSVAADVISLLLNGDGGVGRRRLWIGLQLPPGCGDPKRLGPLRGFQWVTGDNNTSYSRWARLDLNGAPLCGPLCVAVSAAEATVPSEPIWEEQQCEVKADGFLCEFHFPATCRPLAVEPGAAAAAVSITYGTPFAARGADFQALPVGSSAAVAPLGLQLMCTAPPGAVQGHWAREAPGAWDCSVENGGCEHACNAIPGAPRCQCPAGAALQADGRSCTASATQSCNDLCEHFCVPNPDQPGSYSCMCETGYRLAADQHRCEDVDDCILEPSPCPQRCVNTQGGFECHCYPNYDLVDGECVEPVDPCFRANCEYQCQPLNQTSYLCVCAEGFAPIPHEPHRCQLFCNQTACPADCDPNTQASCECPEGYILDDGFICTDIDECENGGFCSGVCHNLPGTFECICGPDSALAGQIGTDCDSGKVDGGDSGAGEPPPSPTPGSTLTPP
notes: Obtained from PAION Deutschland GmbH; also called sTM; recombinant soluble thrombomodulin
A Kd of 23 nM was found for B1 in this work.
